To fix the notation:
B1: Hammerhead Ribozyme (parent)
chain: ACCGGAUGUGCUUUCCGGUCUGAUGAGUCCGUGAGGACGAAACAG

The variants in this data set derive from B1. Put plainly: self-cleavage, relative activity (ratio to wild type); higher = more cleavage; co-transcriptional.
With A1U A41C, the self-cleavage came to 0.378.

As to A1U A41U, the self-cleavage came to 0.377. Regarding A1U A41G, the self-cleavage was found to be 0.414. The same measure for A1G G36C: 0.654. The result for A1G G36U reads 1.02; that for A1G G36A, 1.21; that for A1U G27C, 0.317. For A1U G27A, the self-cleavage is 0.437. In the case of A1U G27U, the self-cleavage is 0.417.

As to A1G G31U, the self-cleavage stood at 1.88. The result for A1G G31C reads 1.64. Take A1G G31A: the self-cleavage is 1.79.

On to A1G G4C, for which the self-cleavage came out at 0.32. The result for A1G G4A reads 0.521; that for A1G G4U, 0.693. The same measure for C2A G45C: 0.42; for C2A G45A: 0.393. The result for C2A G45U reads 0.417; that for A1G G8C, 1.47. With A1G G8U, the self-cleavage was determined as 1.65. The same measure for A1G G8A: 1.57; for C2A A6G: 0.426.

With C2A A6C, the self-cleavage came to 0.306. In the case of C2A A6U, the self-cleavage turned out to be 0.331. With A1G G45A, the self-cleavage is 1.11. With A1G G45U, the self-cleavage came to 1.13. The result for A1G G45C reads 1.01; that for C2A A40U, 0.35; that for C2A A40C, 0.353. The same measure for C2A A40G: 0.324; for C2A C43G: 0.338. The same measure for C2A C43U: 0.308. In the case of C2A C43A, the self-cleavage was found to be 0.333. The result for A1G G33A reads 1.53. The same measure for A1G G33C: 1.67; for A1G G33U: 1.7; for C2A G4A: 0.322. For C2A G4C, the self-cleavage came out at 0.346. The same measure for C2A G4U: 1.77; for A1U U21A: 0.614. The same measure for A1U U21C: 0.379; for A1U U21G: 0.303; for A1U G36U: 0.438. Regarding A1U G36A, the self-cleavage was found to be 0.537.

Regarding A1U G36C, the self-cleavage came out at 0.328. Regarding A1U A37U, the self-cleavage worked out at 0.464.

As for A1U A37G, the self-cleavage was found to be 0.734.

With A1U A37C, the self-cleavage was found to be 0.556. A1G C30G: the self-cleavage came to 1.26.

Take A1G C30A: the self-cleavage is 1.3. The same measure for A1G C30U: 1.84; for A1U C2A: 0.672.

Turning to A1U C2U, the self-cleavage was 0.598.

Regarding A1U C2G, the self-cleavage stood at 1.92. The same measure for A1G U24C: 1.6; for A1G U24A: 1.78. The result for A1G U24G reads 1.68; that for C2A A41C, 0.366; that for C2A A41U, 0.346.

Regarding C2A A41G, the self-cleavage was found to be 0.294. As for A1G C38G, the self-cleavage was found to be 0.865.

Take A1G C38A: the self-cleavage came out at 0.973. The result for A1G C38U reads 1.49. With A1G U13C, the self-cleavage was found to be 1.87.

Take A1G U13G: the self-cleavage turned out to be 1.97.

For A1G U13A, the self-cleavage was found to be 1.96. The result for A1U C11A reads 1.01. On to A1U C11G, for which the self-cleavage was 0.646. A1U C11U: the self-cleavage worked out at 0.423. The result for A1U C29G reads 0.448. A1U C29A: the self-cleavage was 0.435. The same measure for A1U C29U: 0.595.

As to A1G G25C, the self-cleavage stood at 0.319. Consider A1G G25U, for which the self-cleavage came to 0.353.

A1G G25A: the self-cleavage amounted to 0.43.

On to C2A C38G, for which the self-cleavage was 0.373.

C2A C38U: the self-cleavage came out at 0.606. C2A C38A: the self-cleavage was 0.381.

In the case of A1U G17U, the self-cleavage stood at 0.357. The result for A1U G17A reads 0.421. The result for A1U G17C reads 0.393. In the case of A1G G10C, the self-cleavage amounted to 1.61.

As for A1G G10U, the self-cleavage turned out to be 1.99. The same measure for A1G G10A: 1.92.

With A1U C43G, the self-cleavage was 0.448. The result for A1U C43A reads 0.347. The result for A1U C43U reads 0.413. Turning to A1G U12A, the self-cleavage was 1.63. Turning to A1G U12C, the self-cleavage amounted to 1.71. The same measure for A1G U12G: 1.91; for C2A G33C: 0.888. The result for C2A G33U reads 0.858; that for C2A G33A, 0.958. The same measure for C2A G18C: 0.922; for C2A G18U: 1.21; for C2A G18A: 0.883.

As for C2A C20U, the self-cleavage was 0.372. The result for C2A C20A reads 0.292; that for C2A C20G, 0.288. The same measure for A1G U9C: 1.8.

A1G U9G: the self-cleavage was 1.58.

For A1G U9A, the self-cleavage turned out to be 1.83. The result for A1G C15G reads 0.996; that for A1G C15A, 1.06. Take A1G C15U: the self-cleavage was 1.68. As for A1U G10U, the self-cleavage came to 0.997. The result for A1U G10A reads 0.815. The same measure for A1U G10C: 0.6; for A1G U14A: 1.46; for A1G U14C: 1.19. Consider A1G U14G, for which the self-cleavage was found to be 1.85. The same measure for A1U A6C: 0.363; for A1U A6G: 0.459. As to A1U A6U, the self-cleavage was determined as 0.46.

For the variant A1U C20A, the self-cleavage came to 0.37. The result for A1U C20U reads 0.333.

For A1U C20G, the self-cleavage was determined as 0.412.

Consider A1U U24A, for which the self-cleavage is 1.04.

For A1U U24C, the self-cleavage is 0.726. The result for A1U U24G reads 0.508; that for C2A A26U, 0.374; that for C2A A26G, 0.293.

Regarding C2A A26C, the self-cleavage is 0.328. The same measure for A1G U19G: 0.61; for A1G U19C: 2.02; for A1G U19A: 0.511. With C2A A37U, the self-cleavage was 0.368. Take C2A A37C: the self-cleavage turned out to be 0.376. As for C2A A37G, the self-cleavage is 0.427.

For A1G G22A, the self-cleavage was 0.384. The result for A1G G22U reads 0.408; that for A1G G22C, 0.376. The result for A1G G35C reads 1.04. The result for A1G G35U reads 0.947; that for A1G G35A, 1.23. As to A1G C16A, the self-cleavage came to 1.15. The result for A1G C16G reads 0.778; that for A1G C16U, 1.9; that for A1U C3G, 0.418. The same measure for A1U C3A: 0.767. Consider A1U C3U, for which the self-cleavage came out at 0.433. The result for A1U G25U reads 0.435. Consider A1U G25C, for which the self-cleavage came to 0.357. The same measure for A1U G25A: 0.32. The result for A1G C11U reads 1.33. On to A1U, for which the self-cleavage worked out at 0.853. The same measure for A1U A34G: 0.596. The same measure for A1U A34C: 0.492; for A1U A34U: 0.452.

For C2A A34G, the self-cleavage turned out to be 0.48. The result for C2A A34U reads 0.402. The result for C2A A34C reads 0.387. With C2A C15U, the self-cleavage worked out at 0.466. Consider C2A C15A, for which the self-cleavage is 0.378. Turning to C2A C15G, the self-cleavage came to 0.319. The same measure for C2A G35C: 0.429; for C2A G35U: 0.457; for C2A G35A: 0.402. The result for A1U U28G reads 0.436; that for A1U U28A, 0.3; that for A1U U28C, 0.5.

Turning to A1U G33C, the self-cleavage was 0.705. The result for A1U G33U reads 0.972; that for A1U G33A, 0.651. The result for A1U U7C reads 0.555.

As for A1U U7A, the self-cleavage is 0.588.

On to A1U U7G, for which the self-cleavage is 0.603.

These data come from the RNAGym collection of RNA variant scans (doi:10.7554/elife.80360).
